{"source": "patent US10906951B2", "about": "“Modified natural killer cells and natural killer cell lines having increased cytotoxicity” (ONK THERAPEUTICS LIMITED, priority 2015, dated 2021)", "origin": "cited, not measured here", "data": [{"tested_on": "TRAIL decoy receptors (DcR1 and DcR2)", "details": "in words; known from WO 2009/077857, Leary 2016, WO 01/00832; cited from earlier work", "values": [{"molecule": "TRAIL variant (D269H/E195R): TRAIL variant of WO 2009/077857, encoded by the wildtype TRAIL gene containing the D269H/E195R mutation (protein) MAMMEVQGGPSLGQTCVLIVIFTVLLQSLCVAVTYVYFTNELKQMQDKYSKSGIACFLKEDDSYWDPNDEESMNSPCWQVKWQLRQLVRKMILRTSEETISTVQEKQQNISPLVRERGPQRVAAHITGTRGRSNTLSSPNSKNEKALGRKINSWESSRSGHSFLSNLHLRNGELVIHEKGFYYIYSQTYFRFQERIKENTKNDKQMVQYIYKYTSYPDPILLMKSARNSCWSKDAEYGLYSIYQGGIFELKENDRIFVSVTNEHLIDMHHEASFFGAFLVG", "affinity for TRAIL decoy receptors": "reducing the affinity"}, {"molecule": "T261L/G160E: TRAIL DcR variant, Leary 2016 (protein, UniProt P50591 1-281, looked up, variant T261L G160E) Tumor necrosis factor ligand …: MAMMEVQGGPSLGQTCVLIVIFTVLLQSLCVAVTYVYFTNELKQMQDKYSKSGIACFLKEDDSYWDPNDEESMNSPCWQVKWQLRQLVRKMILRTSEETISTVQEKQQNISPLVRERGPQRVAAHITGTRGRSNTLSSPNSKNEKALGRKINSWESSRSEHSFLSNLHLRNGELVIHEKGFYYIYSQTYFRFQEEIKENTKNDKQMVQYIYKYTSYPDPILLMKSARNSCWSKDAEYGLYSIYQGGIFELKENDRIFVSVLNEHLIDMDHEASFFGAFLVG", "affinity for TRAIL decoy receptors": "decreased affinity for TRAIL decoy receptors"}, {"molecule": "T261L/H270D: TRAIL DcR variant, Leary 2016 (protein, UniProt P50591 1-281, looked up, variant T261L H270D) Tumor necrosis factor ligand …: MAMMEVQGGPSLGQTCVLIVIFTVLLQSLCVAVTYVYFTNELKQMQDKYSKSGIACFLKEDDSYWDPNDEESMNSPCWQVKWQLRQLVRKMILRTSEETISTVQEKQQNISPLVRERGPQRVAAHITGTRGRSNTLSSPNSKNEKALGRKINSWESSRSGHSFLSNLHLRNGELVIHEKGFYYIYSQTYFRFQEEIKENTKNDKQMVQYIYKYTSYPDPILLMKSARNSCWSKDAEYGLYSIYQGGIFELKENDRIFVSVLNEHLIDMDDEASFFGAFLVG", "affinity for TRAIL decoy receptors": "decreased affinity for TRAIL decoy receptors"}, {"molecule": "T261L/G160E/H270D/T200H: TRAIL DcR variant, Leary 2016 (protein, UniProt P50591 1-281, looked up, variant T261L G160E H270D T200H) Tumor necrosis factor ligand …: MAMMEVQGGPSLGQTCVLIVIFTVLLQSLCVAVTYVYFTNELKQMQDKYSKSGIACFLKEDDSYWDPNDEESMNSPCWQVKWQLRQLVRKMILRTSEETISTVQEKQQNISPLVRERGPQRVAAHITGTRGRSNTLSSPNSKNEKALGRKINSWESSRSEHSFLSNLHLRNGELVIHEKGFYYIYSQTYFRFQEEIKENHKNDKQMVQYIYKYTSYPDPILLMKSARNSCWSKDAEYGLYSIYQGGIFELKENDRIFVSVLNEHLIDMDDEASFFGAFLVG", "affinity for TRAIL decoy receptors": "decreased affinity for TRAIL decoy receptors"}, {"molecule": "T261L/G160E/H270D: TRAIL DcR variant, Leary 2016 (protein, UniProt P50591 1-281, looked up, variant T261L G160E H270D) Tumor necrosis factor ligand …: MAMMEVQGGPSLGQTCVLIVIFTVLLQSLCVAVTYVYFTNELKQMQDKYSKSGIACFLKEDDSYWDPNDEESMNSPCWQVKWQLRQLVRKMILRTSEETISTVQEKQQNISPLVRERGPQRVAAHITGTRGRSNTLSSPNSKNEKALGRKINSWESSRSEHSFLSNLHLRNGELVIHEKGFYYIYSQTYFRFQEEIKENTKNDKQMVQYIYKYTSYPDPILLMKSARNSCWSKDAEYGLYSIYQGGIFELKENDRIFVSVLNEHLIDMDDEASFFGAFLVG", "affinity for TRAIL decoy receptors": "decreased affinity for TRAIL decoy receptors"}, {"molecule": "H270D: TRAIL DcR variant, Leary 2016 (protein, UniProt P50591 1-281, looked up, variant H270D) Tumor necrosis factor ligand …: MAMMEVQGGPSLGQTCVLIVIFTVLLQSLCVAVTYVYFTNELKQMQDKYSKSGIACFLKEDDSYWDPNDEESMNSPCWQVKWQLRQLVRKMILRTSEETISTVQEKQQNISPLVRERGPQRVAAHITGTRGRSNTLSSPNSKNEKALGRKINSWESSRSGHSFLSNLHLRNGELVIHEKGFYYIYSQTYFRFQEEIKENTKNDKQMVQYIYKYTSYPDPILLMKSARNSCWSKDAEYGLYSIYQGGIFELKENDRIFVSVTNEHLIDMDDEASFFGAFLVG", "affinity for TRAIL decoy receptors": "decreased affinity for TRAIL decoy receptors"}, {"molecule": "T200H: TRAIL DcR variant, Leary 2016 (protein, UniProt P50591 1-281, looked up, variant T200H) Tumor necrosis factor ligand …: MAMMEVQGGPSLGQTCVLIVIFTVLLQSLCVAVTYVYFTNELKQMQDKYSKSGIACFLKEDDSYWDPNDEESMNSPCWQVKWQLRQLVRKMILRTSEETISTVQEKQQNISPLVRERGPQRVAAHITGTRGRSNTLSSPNSKNEKALGRKINSWESSRSGHSFLSNLHLRNGELVIHEKGFYYIYSQTYFRFQEEIKENHKNDKQMVQYIYKYTSYPDPILLMKSARNSCWSKDAEYGLYSIYQGGIFELKENDRIFVSVTNEHLIDMDHEASFFGAFLVG", "affinity for TRAIL decoy receptors": "decreased affinity for TRAIL decoy receptors"}, {"molecule": "T261L: TRAIL DcR variant, Leary 2016 (protein, UniProt P50591 1-281, looked up, variant T261L) Tumor necrosis factor ligand …: MAMMEVQGGPSLGQTCVLIVIFTVLLQSLCVAVTYVYFTNELKQMQDKYSKSGIACFLKEDDSYWDPNDEESMNSPCWQVKWQLRQLVRKMILRTSEETISTVQEKQQNISPLVRERGPQRVAAHITGTRGRSNTLSSPNSKNEKALGRKINSWESSRSGHSFLSNLHLRNGELVIHEKGFYYIYSQTYFRFQEEIKENTKNDKQMVQYIYKYTSYPDPILLMKSARNSCWSKDAEYGLYSIYQGGIFELKENDRIFVSVLNEHLIDMDHEASFFGAFLVG", "affinity for TRAIL decoy receptors": "decreased affinity for TRAIL decoy receptors"}, {"molecule": "D218A: TRAIL DcR variant, WO 01/00832 (protein, UniProt P50591 1-281, looked up, variant D218A) Tumor necrosis factor ligand …: MAMMEVQGGPSLGQTCVLIVIFTVLLQSLCVAVTYVYFTNELKQMQDKYSKSGIACFLKEDDSYWDPNDEESMNSPCWQVKWQLRQLVRKMILRTSEETISTVQEKQQNISPLVRERGPQRVAAHITGTRGRSNTLSSPNSKNEKALGRKINSWESSRSGHSFLSNLHLRNGELVIHEKGFYYIYSQTYFRFQEEIKENTKNDKQMVQYIYKYTSYPAPILLMKSARNSCWSKDAEYGLYSIYQGGIFELKENDRIFVSVTNEHLIDMDHEASFFGAFLVG", "affinity for TRAIL decoy receptors": "DcR variants"}]}, {"target": "DR5 (Homo sapiens, UniProt O14763)", "details": "in words; known from WO 2009/077857, Van der Sloot 2006, MacFarlane 2005, WO 01/00832; cited from earlier work", "values": [{"molecule": "TRAIL variant (D269H/E195R): TRAIL variant of WO 2009/077857, encoded by the wildtype TRAIL gene containing the D269H/E195R mutation (protein) MAMMEVQGGPSLGQTCVLIVIFTVLLQSLCVAVTYVYFTNELKQMQDKYSKSGIACFLKEDDSYWDPNDEESMNSPCWQVKWQLRQLVRKMILRTSEETISTVQEKQQNISPLVRERGPQRVAAHITGTRGRSNTLSSPNSKNEKALGRKINSWESSRSGHSFLSNLHLRNGELVIHEKGFYYIYSQTYFRFQERIKENTKNDKQMVQYIYKYTSYPDPILLMKSARNSCWSKDAEYGLYSIYQGGIFELKENDRIFVSVTNEHLIDMHHEASFFGAFLVG", "affinity for DR5": "significantly increases the affinity"}, {"molecule": "Y189A/Q193S/N199V/K201R/Y213W/S215D: TRAIL variant, MacFarlane 2005 (protein, UniProt P50591 1-281, looked up, variant Y189A Q193S N199V K201R Y213W S215D) Tumor necrosis factor ligand …: MAMMEVQGGPSLGQTCVLIVIFTVLLQSLCVAVTYVYFTNELKQMQDKYSKSGIACFLKEDDSYWDPNDEESMNSPCWQVKWQLRQLVRKMILRTSEETISTVQEKQQNISPLVRERGPQRVAAHITGTRGRSNTLSSPNSKNEKALGRKINSWESSRSGHSFLSNLHLRNGELVIHEKGFYYIYSQTAFRFSEEIKEVTRNDKQMVQYIYKWTDYPDPILLMKSARNSCWSKDAEYGLYSIYQGGIFELKENDRIFVSVTNEHLIDMDHEASFFGAFLVG", "affinity for DR5": "increased affinity for DR5"}, {"molecule": "N199V: TRAIL variant, MacFarlane 2005 (protein, UniProt P50591 1-281, looked up, variant N199V) Tumor necrosis factor ligand …: MAMMEVQGGPSLGQTCVLIVIFTVLLQSLCVAVTYVYFTNELKQMQDKYSKSGIACFLKEDDSYWDPNDEESMNSPCWQVKWQLRQLVRKMILRTSEETISTVQEKQQNISPLVRERGPQRVAAHITGTRGRSNTLSSPNSKNEKALGRKINSWESSRSGHSFLSNLHLRNGELVIHEKGFYYIYSQTYFRFQEEIKEVTKNDKQMVQYIYKYTSYPDPILLMKSARNSCWSKDAEYGLYSIYQGGIFELKENDRIFVSVTNEHLIDMDHEASFFGAFLVG", "affinity for DR5": "increased affinity for DR5"}, {"molecule": "Y240A: TRAIL DR5 variant, WO 01/00832 (protein, UniProt P50591 1-281, looked up, variant Y240A) Tumor necrosis factor ligand …: MAMMEVQGGPSLGQTCVLIVIFTVLLQSLCVAVTYVYFTNELKQMQDKYSKSGIACFLKEDDSYWDPNDEESMNSPCWQVKWQLRQLVRKMILRTSEETISTVQEKQQNISPLVRERGPQRVAAHITGTRGRSNTLSSPNSKNEKALGRKINSWESSRSGHSFLSNLHLRNGELVIHEKGFYYIYSQTYFRFQEEIKENTKNDKQMVQYIYKYTSYPDPILLMKSARNSCWSKDAEYGLASIYQGGIFELKENDRIFVSVTNEHLIDMDHEASFFGAFLVG", "affinity for DR5": "DR5 variants"}, {"molecule": "D269A: TRAIL DR5 variant, WO 01/00832 (protein, UniProt P50591 1-281, looked up, variant D269A) Tumor necrosis factor ligand …: MAMMEVQGGPSLGQTCVLIVIFTVLLQSLCVAVTYVYFTNELKQMQDKYSKSGIACFLKEDDSYWDPNDEESMNSPCWQVKWQLRQLVRKMILRTSEETISTVQEKQQNISPLVRERGPQRVAAHITGTRGRSNTLSSPNSKNEKALGRKINSWESSRSGHSFLSNLHLRNGELVIHEKGFYYIYSQTYFRFQEEIKENTKNDKQMVQYIYKYTSYPDPILLMKSARNSCWSKDAEYGLYSIYQGGIFELKENDRIFVSVTNEHLIDMAHEASFFGAFLVG", "affinity for DR5": "DR5 variants"}, {"molecule": "Y213W/S215D: TRAIL variant, MacFarlane 2005 (protein, UniProt P50591 1-281, looked up, variant Y213W S215D) Tumor necrosis factor ligand …: MAMMEVQGGPSLGQTCVLIVIFTVLLQSLCVAVTYVYFTNELKQMQDKYSKSGIACFLKEDDSYWDPNDEESMNSPCWQVKWQLRQLVRKMILRTSEETISTVQEKQQNISPLVRERGPQRVAAHITGTRGRSNTLSSPNSKNEKALGRKINSWESSRSGHSFLSNLHLRNGELVIHEKGFYYIYSQTYFRFQEEIKENTKNDKQMVQYIYKWTDYPDPILLMKSARNSCWSKDAEYGLYSIYQGGIFELKENDRIFVSVTNEHLIDMDHEASFFGAFLVG", "affinity for DR5": "increased affinity for DR5"}]}]}
